For test [1], the target named is human CEACAM5 (R&D Systems, Inc.), biotinylated (human) (UniProt P06731). The experiment in a line: SPR (Biacore T200), biotinylated human CEACAM5 captured on chip, Fab as analyte. (In SPR one partner is held on a chip, and binding of the other changes the refractive index at the surface.)
For test [2] the target is unchanged. The experiment in a line: SPR (Biacore T200), biotinylated human CEACAM5 captured on chip, Fab conjugate as analyte.
Test [3] addresses T1, human CEACAM5 (R&D Systems, Inc.), biotinylated (human, UniProt P06731 35-685, biotinylated with Biotin Labeling Kit-NH2; sites not stated).
T1 construct: Bought protein, biotinylated and captured on the sensor chip with the Biotin CAPture Kit
T1 sequence (looked up): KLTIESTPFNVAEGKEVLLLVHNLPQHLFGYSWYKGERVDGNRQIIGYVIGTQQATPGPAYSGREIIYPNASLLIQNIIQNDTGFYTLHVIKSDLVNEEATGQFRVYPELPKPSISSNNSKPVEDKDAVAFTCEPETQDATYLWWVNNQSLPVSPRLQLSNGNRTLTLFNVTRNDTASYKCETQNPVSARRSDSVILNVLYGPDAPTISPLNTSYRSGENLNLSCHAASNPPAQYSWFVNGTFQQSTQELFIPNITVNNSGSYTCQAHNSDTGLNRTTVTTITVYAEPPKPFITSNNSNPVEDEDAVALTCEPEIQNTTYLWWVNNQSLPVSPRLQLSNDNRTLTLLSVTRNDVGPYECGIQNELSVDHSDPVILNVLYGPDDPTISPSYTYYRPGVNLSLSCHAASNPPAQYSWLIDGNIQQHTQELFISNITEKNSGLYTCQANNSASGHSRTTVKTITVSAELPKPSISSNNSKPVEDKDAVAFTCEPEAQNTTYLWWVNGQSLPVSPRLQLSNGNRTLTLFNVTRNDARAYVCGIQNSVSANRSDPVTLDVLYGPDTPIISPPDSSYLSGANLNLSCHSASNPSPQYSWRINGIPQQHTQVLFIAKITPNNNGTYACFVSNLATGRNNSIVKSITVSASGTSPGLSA
Put plainly: SPR (Biacore T200), biotinylated human CEACAM5 captured on chip, Fab as analyte. As for the experimental part:
(§1) The analysis by SPR was conducted using Biacore T200 (GE Healthcare Japan Corp.). 10 μg/mL human CEACAM5 (R&D Systems, Inc.) biotinylated with Biotin CAPture Kit, Series S (GE Healthcare Japan Corp.) and Biotin Labeling Kit-NH₂ (Dojindo Laboratories) was added to the surface of the sensor chip at a flow rate of 5 μL/min for 2 minutes, and immobilized thereonto. PB009-01, PB009-02, M5A-Fab and M5A-Fab-DFO were diluted with HBS-EP+ solution (GE Healthcare Japan Corp.) into 6 series at a 2-fold ratio from 400 nM, and 100 μL each was added to the channel at a flow rate of 50 μL/min. In this measurement system, the dissociation constant (KD) of PB009-01, PB009-02, M5A-Fab or M5A-Fab-DFO for human CEACAM5 was calculated using data analysis software (BIA Evaluation, GE Healthcare Japan Corp.). As a result, as shown in the table given below, the binding activity of M5A-Fab was attenuated by the binding of DFO, whereas the binding activity of PB009-01 was not attenuated by the binding of DFO.

Test [4] concerns the target T1, human CEACAM5 (R&D Systems, Inc.), …. Put plainly: SPR (Biacore T200), biotinylated human CEACAM5 captured on chip, Fab conjugate as analyte. As for the experimental part: In order to measure the detailed binding activity of PB009-02, analysis was conducted by SPR. In this Example, a Fab fragment of M5A (referred to as M5A-Fab), a humanized antibody of T84.66, was used as a comparative Fab fragment. M5A-Fab bound to DFO via a linker (referred to as M5A-Fab-DFO) was prepared by use of the method described in Example 2.
as §1

Turning to “Fab fragment of M5A, a humanized antibody of T84.66”, the Kd (in general, the concentration at which binding is half-saturated) in test [1] is 0.16 nM.
In turn, M5A-Fab bound to DFO via a linker yielded a Kd in test [2] of 9.6 nM.

B1: anti-human CEACAM5 antibody Fab fragment PB009-01 (Fab, V domains shown)
VH: EVQLVESGGGLVQPGGSLRLSCAASGFNIRDTYMHWVRQAPGKGLEWVARIDPANGNSRYVPKFQGRFTISADTSRNTAYLQMNSLRAEDTAVYYCAPFGYYVSDYAMAYWGQGTLVTVSS
VL: DIQLTQSPSSLSASVGDRVTITCRAGESVDIFGVGFLHWYQQKPGKAPKLLIYRASNLESGIPSRFSGSGSRTDFTLTISSLQPEDFATYYCQQTNEDPYTFGQGTKVEIKR
notes: Humanized and redesigned from mouse anti-human CEACAM5 antibody T84.66
As to B1, binding in test [3] was characterised by a dissociation constant (Kd) of 0.17 nM.

B2: PB009-02 (Fab fragment PB009-01 bound to DFO via a linker) (Fab, V domains shown)
VH: EVQLVESGGGLVQPGGSLRLSCAASGFNIRDTYMHWVRQAPGKGLEWVARIDPANGNSRYVPKFQGRFTISADTSRNTAYLQMNSLRAEDTAVYYCAPFGYYVSDYAMAYWGQGTLVTVSS
VL: DIQLTQSPSSLSASVGDRVTITCRAGESVDIFGVGFLHWYQQKPGKAPKLLIYRASNLESGIPSRFSGSGSRTDFTLTISSLQPEDFATYYCQQTNEDPYTFGQGTKVEIKR
modifications: DFO bound via linker -C(=S)-NH-(1,4-phenylene)-NH-C(=S)- (from p-SCN-Bn-DFO); at least 3 to 10 DFO ligands per Fab by mass spectrometry; modified residues and their split between the chains not …
notes: Chemical conjugate of PB009-01 with the chelator DFO
Consider B2, for which the dissociation constant Kd in test [4] stood at 0.61 nM.

The values above are taken from patent US20200123270A1 (Astellas, published 2020).
